These results are taken from patent EP1557429A1 (Vectron Therapeutics AG, dated 2005).

Assay [1] has as its target T1, EGF receptor (UniProt P00533 25-1210, limits assumed).
T1 construct: whole, on cells; also called epidermal growth factor receptor
Put plainly: immunofluorescence of phage on A431 cells.

The target of assay [2] is T1, EGF receptor. Put plainly: competition of fdEGF phage binding to A431 cells, FACS, inhibition from mean fluorescence intensity.

Positions count from the first letter of the chain named.

B1: EGF1 library clone 3 (phage-displayed EGF variant) (other)
chain: NSDSECPLSHDGYCLHDGVCMYIEALDEYACNCVVGYIGERCQYRDLRWWELR
modifications: displayed on phage as a coat protein fusion (pHEN3)
notes: also called EGF1 # 3; not shown: phage coat protein fusion partner of phagemid pHEN3 (and any vector tags) at the C end
On to B1, for which the binding result with EGF receptor [1] was “binds”.

B2: HisEGFm1 (EGFm1 with N-terminal hexahistidyl tag) (ligand, human, UniProt P01133 971-1023, looked up)
chain: B1 chain with E28Q, R45S, R48S, R53S
notes: mature; Clone 6 of the EGF2 library selection, expressed in the E. coli periplasm and purified by IMAC; The preparation also held molecules of about 15 kDa (dimer size); also called purified EGFm1; soluble EGFm1; not shown: N-terminal hexahistidyl tag (HHHHHH); primer SfiHisEGF encodes ...Met-Ala-Gly-His6-Ala befor
As usually defined, the IC50 is the midpoint of a concentration-inhibition curve. The low end stands for higher potency, the high end for lower potency. B2: in the assay with EGF receptor [2], the IC50 is approximately 500 nM.
